B1: casp8p41 polypeptide: procaspase-8 cleavage fragment p41 generated by HIV protease (SEQ ID NO:2) (protein, listed as Homo sapiens)
chain: MDFSRNLYDIGEQLDSEDLASLKFLSLDYIPQRKQEPIKDALMLFQRLQEKRMLEESNLSFLKELLFRINRLDLLITYLNTRKEEMERELQTPGRAQISAYRVMLYQISEEVSRSELRSFKFLLQEEISKCKLDDDMNLLDIFIEMEKRVILGEGKLDILKRVCAQINKSLLKIINDYEEFSKERSSSLEGSPDEFSNGEELCGVMTISDSPREQDSESQTLDKVYQMKSKPRGYCLIINNHNFAKAREKVPKLHSIRDRNGTHLDAGALTTTFEELHFEIKPHDDCTVEQIYEILKIYQLMDHSNMDCFICCILSHGDKGIIYGTDGQEPPIYELTSQFTGLKCPSLAGKPKVF
B2: caspase-8 polypeptide: full-length caspase-8 polypeptide, over-expressed (protein, UniProt Q14790 1-479, looked up)
chain: MDFSRNLYDIGEQLDSEDLASLKFLSLDYIPQRKQEPIKDALMLFQRLQEKRMLEESNLSFLKELLFRINRLDLLITYLNTRKEEMERELQTPGRAQISAYRVMLYQISEEVSRSELRSFKFLLQEEISKCKLDDDMNLLDIFIEMEKRVILGEGKLDILKRVCAQINKSLLKIINDYEEFSKERSSSLEGSPDEFSNGEELCGVMTISDSPREQDSESQTLDKVYQMKSKPRGYCLIINNHNFAKAREKVPKLHSIRDRNGTHLDAGALTTTFEELHFEIKPHDDCTVEQIYEILKIYQLMDHSNMDCFICCILSHGDKGIIYGTDGQEAPIYELTSQFTGLKCPSLAGKPKVFFIQACQGDNYQKGIPVETDSEEQPYLEMDLSSPQTRYIPDEADFLLGMATVNNCVSYRNPAEGTWYIQSLCQSLRERCPRGDDILTILTEVNYEVSNKDDKKNMGKQMPQPTFTLRKKLVFPSD
modifications: full-length
notes: full-length caspase-8 polypeptide, over-expressed
B3: renin: another aspartyl protease (protein, UniProt P00797 67-406, looked up)
Renin: LTLGNTTSSVILTNYMDTQYYGEIGIGTPPQTFKVVFDTGSSNVWVPSSKCSRLYTACVYHKLFDASDSSSYKHNGTELTLRYSTGTVSGFLSQDIITVGGITVTQMFGEVTEMPALPFMLAEFDGVVGMGFIEQAIGRVTPIFDNIISQGVLKEDVFSFYYNRDSENSQSLGGQIVLGGSDPQHYEGNFHYINLIKTGVWQIQMKGVSVGSSTLLCEDGCLALVDTGASYISGSTSSIEKLMEALGAKKRLFDYVVKCNEGPTLPDISFHLGGKEYTLTSADYVFQESYSSKKLCTLAIHAMDIPPPTGPTWALGATFIRKFYTEFDRRNNRIGFALAR

Experiments:
primary human T cells = assay: transfection of primary human T cells, viability by light scatter and apoptosis by TUNEL; format: cell-based; conditions: PBL from HIV-negative donors transfected with pcDNA3 HA casp8p41, compared with GSK3β control vector
Method: Primary human T cells were tested for their response to expression of casp8p41 polypeptide by transfecting cells with a vector encoding casp8p41 polypeptide, or with a control vector encoding glycogen synthase kinase 3β (GSK3β; Kim et al., J Biol Chem., 278:13995-14001 (2003)). PBL from HIV-negative donors were isolated and transfected with 2 μg/10×10^6 cells with pcDNA3 HA GSK3β (Ougolkov et al., Cancer Res., 65:2076-2081 (2005)) or pcDNA3 HA casp8p41 using nucleofectin (AMAXA, MD) and program U14. Transfected cells were analyzed for changes in viability by light scatter or for apoptosis by TUNEL staining.

[1] = system: NFκB-mediated transcription; assay: NFκB activation in an over-expression system; format: cell-based
HeLa cells = assay: transient expression in HeLa cells, TUNEL, active caspase-3 and Annexin-V staining; format: cell-based; conditions: cells transfected with pEGFPC1casp8p41
Method: The effect of transient expression of casp8p41 polypeptide in HeLa cells was investigated. HeLa cells were purchased from ATCC and maintained in Dulbecco's Modified Eagle Medium (DMEM; GIBCO) supplemented with 10% (v/v) FBS, 1% penicillin and streptomycin, and 2 mM L-glutamine. The cells were incubated at 37° C. in a humidified atmosphere containing 5% CO2 and 95% air. Exponentially growing cells were seeded at 2500-5000 cells/well in a 96-well plate. The cells were transfected with a DNA plasmid expressing GFP (pEGFPC1, BD Biosciences Clontech, Palo Alto, Calif.), or with a plasmid expressing casp8p41 polypeptide as a fusion to the C-terminus of GFP (pEGFPC1casp8p41) using Fugene 6 (2 μL per μg DNA), according to the manufacturer's protocol. […]
HeLa cells transfected with pEGFPC1 or pEGFPC1casp8p41 were analyzed by confocal microscopy following staining with DAPI to visualize cell nuclei and TUNEL staining to detect apoptosis. […]
Cells transfected with pEGFPC1 and pEGFPC1casp8p41 were also subjected to Annexin-V PE, active caspase-3, and TUNEL staining and analyzed for cell death by flow cytometry, gating specifically on GFP-positive cells. […] GFP and annexin-V PE double-positive cells were analyzed by flow cytometry at 30,000 events per sample. […]

[2] = system: cytosols from Jurkat T cells; assay: apoptotic signaling cascade in cell-free system (Jurkat cell extracts), Western blot; format: biochemical; conditions: added to cytosols from Jurkat T cells
Method: The ability of the procaspase-8 cleavage fragment p41 (hereafter referred to as casp8p41) to initiate an apoptotic signaling cascade in a cell-free system was tested. The cell free system was used previously to reveal the signaling pathway used by HIV protease to initiate apoptosis.
Jurkat cells were purchased from ATCC (Rockville, Md.) and maintained in Dulbecco's Modified Eagle Medium (DMEM) or RPMI1640 (GIBCO) supplemented with 10% (v/v) FBS, 1% penicillin and streptomycin, and 2 mM L-glutamine. The cells were incubated at 37° C. in a humidified atmosphere containing 5% CO2 and 95% air. Jurkat cell extracts were prepared as described previously (Nie et al., Cell Death Differ., 9:1172-84 (2002)). Briefly, cells (0.5×10^6 cells/mL) were harvested by centrifugation at 16000×g for 5 minutes at 4° C. The cell pellet was washed twice with ice-cold PBS (pH 7.4), followed by a single wash with ice-cold caspase buffer (20 mM PIPES, 100 mM NaCl, 10 mM DTT, 1 mM EDTA, 0.1% CHAPS, 250 mM sucrose, pH 7.2). […] Polypeptide concentrations were determined using a BCA protein assay kit (Pierce Chemical Co., Rockford, Ill.), and the resultant suspension was incubated with either HIV protease or casp8p41 polypeptide. […]

procaspase-8 = molecular target: T1, procaspase-8 (Homo sapiens, UniProt Q14790, A331P); assay: in vitro cleavage of 35S methionine-labeled procaspase-8, autoradiography and immunoblotting; format: biochemical; conditions: 50 mM NaOAc (pH 4.9), 200 mM NaCl, 5 mM DTT, 10% glycerol
T1 construct: amino acids 355 and 356 were mutated in full-length caspase-8; made in house; host or cells: cell-free TNT Quick coupled transcription/translation system (Promega)
Method: The fusion polypeptide, Flag-procaspase-8-Myc, was prepared by TNTR Quick coupled transcription/translation systems (Promega, Madison, Wis.). Briefly, 1 μg of pcDNA3Flag-procaspase-8-Myc or pcDNA3Flag (as a control) was added to a 50 μL nuclease-free reaction mixture containing 40 μL of TNT Quick Master Mix and 1 μL of 1 mM […] methionine. The reaction was carried out at 30° C. for 90 minutes and stopped by adding 20 μg/mL of cycloheximide (CI-IX) and 200 μg/mL of RNase and incubating the mixture at 30° C. for 5 minutes. ^35S methionine-labeled Flag-procaspase-8-Myc fusion polypeptide was prepared by adding 40 μCi of ^35S methionine instead of 1 μL of 1 mM methionine. The reaction mixture was separated by SDS-PAGE on a 10-15% gel and visualized by autoradiography. […]
The ^35S methionine-labeled Flag-procaspase-8-Myc fusion polypeptide produced in vitro was incubated with HIV-1 protease purchased from Sachem Biosciences (King of Prussia, Pa.). […] After cleavage of ^35S methionine-labeled Flag-procaspase-8-Myc fusion polypeptide by HIV-1 protease, the products were analyzed by autoradiography (FIG. 1C, top) and immunoblotting using antibodies directed against the Flag (FIG. 1C, middle) and Myc (FIG. 1C, bottom) epitopes. […]

T1 sequence (Q14790 whole entry A331P): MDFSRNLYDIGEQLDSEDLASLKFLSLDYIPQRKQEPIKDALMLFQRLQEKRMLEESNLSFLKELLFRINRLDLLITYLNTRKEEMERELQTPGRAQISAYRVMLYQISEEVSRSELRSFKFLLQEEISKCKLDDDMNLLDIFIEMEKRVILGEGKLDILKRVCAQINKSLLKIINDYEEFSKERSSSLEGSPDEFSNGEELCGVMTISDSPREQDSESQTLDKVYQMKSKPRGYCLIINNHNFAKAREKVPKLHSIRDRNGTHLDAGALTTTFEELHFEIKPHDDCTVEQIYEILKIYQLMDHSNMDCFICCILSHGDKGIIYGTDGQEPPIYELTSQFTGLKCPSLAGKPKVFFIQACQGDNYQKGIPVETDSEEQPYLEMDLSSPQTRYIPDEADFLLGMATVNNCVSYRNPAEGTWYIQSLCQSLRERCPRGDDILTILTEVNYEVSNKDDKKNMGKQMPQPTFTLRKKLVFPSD

Molecule	level of apoptosis (primary human T cells)	NFκB activation [1]	TUNEL positivity and active caspase-3 expression, flow cytometry gated on GFP-positive cells (HeLa cells)	apoptotic signaling: Bid cleavage, cytochrome c release, caspase-9 and PARP cleavage [2]	cleavage of Flag-procaspase-8-Myc fusion polypeptide (procaspase-8)
B1	induced a significantly greater level of apoptosis	two-fold more than full-length caspase-8 polypeptide	induces TUNEL positivity and active caspase-3 expression	resulted in cleavage of Bid to p15 tBid, release of cytochrome c from the mitochondrial fraction into the cytosol, and cleavage of caspase-9 and PARP	
B2		increase NFκB activation			
B3					did not cause procaspase 8 cleavage

Reference: patent US20100062462A1, “IMMUNODEFICIENCY VIRUSES” (priority 2005, published 2010)
